Literature values, collected in publication PMC7614842.

Target: C3d C3d (Mus musculus) (UniProt P01027)
UniProt P01027, sequence (P01027 1002-1303): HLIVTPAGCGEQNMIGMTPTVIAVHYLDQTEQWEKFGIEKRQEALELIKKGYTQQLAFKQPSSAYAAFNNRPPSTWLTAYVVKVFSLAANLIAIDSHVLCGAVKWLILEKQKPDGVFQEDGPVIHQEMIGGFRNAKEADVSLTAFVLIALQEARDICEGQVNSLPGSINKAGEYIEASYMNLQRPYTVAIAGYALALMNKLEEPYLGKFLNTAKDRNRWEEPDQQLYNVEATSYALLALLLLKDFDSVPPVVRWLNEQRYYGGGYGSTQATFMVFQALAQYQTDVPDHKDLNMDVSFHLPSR

For CR2 (from UniProt P19070), the Kd is given as 140 nM.
